Test results reported in US20120316071A1 (published 2012).

B1: Fab VH1-46_IGHD6-6*01_IGHJ1*01 S102A/S103P/S104F/H111F (APFF) & L6_IGKJ1*01 S76L (Fab, V domains shown)
VH: QVQLVQSGAEVKKPGASVKVSCKASGYTFTSYYMHWVRQAPGQGLEWMGIINPSGGSTSYAQKFQGRVTMTRDTSTSTVYMELSSLRSEDTAVYYCAREEYAPFSAEYFQFWGQGTLVTVSS
VL: EIVLTQSPATLSLSPGERATLSCRASQSVSSYLAWYQQKPGQAPRLLIYDASNRATGIPARFSGSGSGTDFTLTILSLEPEDFAVYYCQQRSNWPPWTFGQGTKVEIKR
notes: Fab made in E. coli: VH in plasmid A (CH1, His6 and Flag tags), VL in plasmid C (kappa CL); also called H:APFF & L6_IGKJ1*01 S76L
B2: Fab VH1-46_IGHD6-6*01_IGHJ1*01 S102A/S103P/S104F/H111F (APFF) & L6_IGKJ1*01 S76Y (Fab, V domains shown)
VH: QVQLVQSGAEVKKPGASVKVSCKASGYTFTSYYMHWVRQAPGQGLEWMGIINPSGGSTSYAQKFQGRVTMTRDTSTSTVYMELSSLRSEDTAVYYCAREEYAPFSAEYFQFWGQGTLVTVSS
VL: EIVLTQSPATLSLSPGERATLSCRASQSVSSYLAWYQQKPGQAPRLLIYDASNRATGIPARFSGSGSGTDFTLTIYSLEPEDFAVYYCQQRSNWPPWTFGQGTKVEIKR
notes: Fab made in E. coli: VH in plasmid A (CH1, His6 and Flag tags), VL in plasmid C (kappa CL); also called H:APFF & L6_IGKJ1*01 S76Y
B3: Fab VH1-46_IGHD6-6*01_IGHJ1*01 S102A/S103P/S104F/H111F (APFF) & L6_IGKJ1*01 S76T (Fab, V domains shown)
VH: QVQLVQSGAEVKKPGASVKVSCKASGYTFTSYYMHWVRQAPGQGLEWMGIINPSGGSTSYAQKFQGRVTMTRDTSTSTVYMELSSLRSEDTAVYYCAREEYAPFSAEYFQFWGQGTLVTVSS
VL: EIVLTQSPATLSLSPGERATLSCRASQSVSSYLAWYQQKPGQAPRLLIYDASNRATGIPARFSGSGSGTDFTLTITSLEPEDFAVYYCQQRSNWPPWTFGQGTKVEIKR
notes: Fab made in E. coli: VH in plasmid A (CH1, His6 and Flag tags), VL in plasmid C (kappa CL); also called H:APFF & L6_IGKJ1*01 S76T
B4: Fab VH5-51_IGHD5-18*01>3_IGHJ4*01 G100K/G104T F29A & V3-4_IGLJ1*01 (Fab, V domains shown)
VH: EVQLVQSGAEVKKPGESLKISCKGSGYSATSYWIGWVRQMPGKGLEWMGIIYPGDSDTRYSPSFQGQVTISADKSISTAYLQWSSLKASDTAMYYCARRKYSYTYDYFDYWGQGTLVTVSS
VL: QTVVTQEPSFSVSPGGTVTLTCGLSSGSVSTSYYPSWYQQTPGQAPRTLIYSTNTRSSGVPDRFSGSILGNKAALTITGAQADDESDYYCVLYMGSGISYVFGTGTKVTVL
notes: Fab expressed in E. coli with CH1 (plasmid A, His6 and Flag tags) and lambda CL (plasmid E); also called KT F29A
B5: Fab VH5-51_IGHD5-18*01>3_IGHJ4*01 G100K/G104T G35T & V3-4_IGLJ1*01 (Fab, V domains shown)
VH: EVQLVQSGAEVKKPGESLKISCKGSGYSFTSYWITWVRQMPGKGLEWMGIIYPGDSDTRYSPSFQGQVTISADKSISTAYLQWSSLKASDTAMYYCARRKYSYTYDYFDYWGQGTLVTVSS
VL: QTVVTQEPSFSVSPGGTVTLTCGLSSGSVSTSYYPSWYQQTPGQAPRTLIYSTNTRSSGVPDRFSGSILGNKAALTITGAQADDESDYYCVLYMGSGISYVFGTGTKVTVL
notes: Fab from E. coli: VH-CH1 from Plasmid A with His6 and Flag tags, VL with lambda CL from Plasmid E; also called KT G35T
B6: Fab VH5-51_IGHD5-18*01>3_IGHJ4*01 G100K/G104T G35A & V3-4_IGLJ1*01 (Fab, V domains shown)
VH: EVQLVQSGAEVKKPGESLKISCKGSGYSFTSYWIAWVRQMPGKGLEWMGIIYPGDSDTRYSPSFQGQVTISADKSISTAYLQWSSLKASDTAMYYCARRKYSYTYDYFDYWGQGTLVTVSS
VL: QTVVTQEPSFSVSPGGTVTLTCGLSSGSVSTSYYPSWYQQTPGQAPRTLIYSTNTRSSGVPDRFSGSILGNKAALTITGAQADDESDYYCVLYMGSGISYVFGTGTKVTVL
notes: Fab from E. coli: VH-CH1 from Plasmid A with His6 and Flag tags, VL with lambda CL from Plasmid E; also called KT G35A
B7: Fab VH5-51_IGHD5-18*01>3_IGHJ4*01 G100K/G104T S28A & V3-4_IGLJ1*01 (Fab, V domains shown)
VH: EVQLVQSGAEVKKPGESLKISCKGSGYAFTSYWIGWVRQMPGKGLEWMGIIYPGDSDTRYSPSFQGQVTISADKSISTAYLQWSSLKASDTAMYYCARRKYSYTYDYFDYWGQGTLVTVSS
VL: QTVVTQEPSFSVSPGGTVTLTCGLSSGSVSTSYYPSWYQQTPGQAPRTLIYSTNTRSSGVPDRFSGSILGNKAALTITGAQADDESDYYCVLYMGSGISYVFGTGTKVTVL
notes: Fab expressed in E. coli with CH1 (plasmid A, His6 and Flag tags) and lambda CL (plasmid E); also called KT S28A
B8: Fab VH5-51_IGHD5-18*01>3_IGHJ4*01 G100K/G104T G35V & V3-4_IGLJ1*01 (Fab, V domains shown)
VH: EVQLVQSGAEVKKPGESLKISCKGSGYSFTSYWIVWVRQMPGKGLEWMGIIYPGDSDTRYSPSFQGQVTISADKSISTAYLQWSSLKASDTAMYYCARRKYSYTYDYFDYWGQGTLVTVSS
VL: QTVVTQEPSFSVSPGGTVTLTCGLSSGSVSTSYYPSWYQQTPGQAPRTLIYSTNTRSSGVPDRFSGSILGNKAALTITGAQADDESDYYCVLYMGSGISYVFGTGTKVTVL
notes: Fab from E. coli: VH-CH1 from Plasmid A with His6 and Flag tags, VL with lambda CL from Plasmid E; also called KT G35V
B9: Fab VH5-51_IGHD5-18*01>3_IGHJ4*01 G100K/G104T T30A & V3-4_IGLJ1*01 (Fab, V domains shown)
VH: EVQLVQSGAEVKKPGESLKISCKGSGYSFASYWIGWVRQMPGKGLEWMGIIYPGDSDTRYSPSFQGQVTISADKSISTAYLQWSSLKASDTAMYYCARRKYSYTYDYFDYWGQGTLVTVSS
VL: QTVVTQEPSFSVSPGGTVTLTCGLSSGSVSTSYYPSWYQQTPGQAPRTLIYSTNTRSSGVPDRFSGSILGNKAALTITGAQADDESDYYCVLYMGSGISYVFGTGTKVTVL
notes: Fab expressed in E. coli with CH1 (plasmid A, His6 and Flag tags) and lambda CL (plasmid E); also called KT T30A
B10: Fab VH5-51_IGHD5-18*01>3_IGHJ4*01 G100K/G104T S28N & V3-4_IGLJ1*01 (Fab, V domains shown)
VH: EVQLVQSGAEVKKPGESLKISCKGSGYNFTSYWIGWVRQMPGKGLEWMGIIYPGDSDTRYSPSFQGQVTISADKSISTAYLQWSSLKASDTAMYYCARRKYSYTYDYFDYWGQGTLVTVSS
VL: QTVVTQEPSFSVSPGGTVTLTCGLSSGSVSTSYYPSWYQQTPGQAPRTLIYSTNTRSSGVPDRFSGSILGNKAALTITGAQADDESDYYCVLYMGSGISYVFGTGTKVTVL
notes: Fab from E. coli: VH-CH1 from Plasmid A with His6 and Flag tags, VL with lambda CL from Plasmid E; also called KT S28N
B11: Fab VH5-51_IGHD5-18*01>3_IGHJ4*01 G100K/G104T S28R & V3-4_IGLJ1*01 (Fab, V domains shown)
VH: EVQLVQSGAEVKKPGESLKISCKGSGYRFTSYWIGWVRQMPGKGLEWMGIIYPGDSDTRYSPSFQGQVTISADKSISTAYLQWSSLKASDTAMYYCARRKYSYTYDYFDYWGQGTLVTVSS
VL: QTVVTQEPSFSVSPGGTVTLTCGLSSGSVSTSYYPSWYQQTPGQAPRTLIYSTNTRSSGVPDRFSGSILGNKAALTITGAQADDESDYYCVLYMGSGISYVFGTGTKVTVL
notes: Fab from E. coli: VH-CH1 from Plasmid A with His6 and Flag tags, VL with lambda CL from Plasmid E; also called KT S28R
B12: Fab VH5-51_IGHD5-18*01>3_IGHJ4*01 G100K/G104T G24A & V3-4_IGLJ1*01 (Fab, V domains shown)
VH: EVQLVQSGAEVKKPGESLKISCKASGYSFTSYWIGWVRQMPGKGLEWMGIIYPGDSDTRYSPSFQGQVTISADKSISTAYLQWSSLKASDTAMYYCARRKYSYTYDYFDYWGQGTLVTVSS
VL: QTVVTQEPSFSVSPGGTVTLTCGLSSGSVSTSYYPSWYQQTPGQAPRTLIYSTNTRSSGVPDRFSGSILGNKAALTITGAQADDESDYYCVLYMGSGISYVFGTGTKVTVL
notes: Fab expressed in E. coli with CH1 (plasmid A, His6 and Flag tags) and lambda CL (plasmid E); also called KT G24A
B13: Fab VH5-51_IGHD5-18*01>3_IGHJ4*01 G100K/G104T G35A & V3-4_IGLJ1*01 (Fab, V domains shown)
VH: EVQLVQSGAEVKKPGESLKISCKGSGYSFTSYWIAWVRQMPGKGLEWMGIIYPGDSDTRYSPSFQGQVTISADKSISTAYLQWSSLKASDTAMYYCARRKYSYTYDYFDYWGQGTLVTVSS
VL: QTVVTQEPSFSVSPGGTVTLTCGLSSGSVSTSYYPSWYQQTPGQAPRTLIYSTNTRSSGVPDRFSGSILGNKAALTITGAQADDESDYYCVLYMGSGISYVFGTGTKVTVL
notes: Fab expressed in E. coli with CH1 (plasmid A, His6 and Flag tags) and lambda CL (plasmid E); also called KT G35A
B14: Fab VH5-51_IGHD5-18*01>3_IGHJ4*01 G100K/G104T/G24L/S28R/G35V (KT LRV) & V3-4_IGLJ1*01 (Fab, V domains shown)
VH: EVQLVQSGAEVKKPGESLKISCKLSGYRFTSYWIVWVRQMPGKGLEWMGIIYPGDSDTRYSPSFQGQVTISADKSISTAYLQWSSLKASDTAMYYCARRKYSYTYDYFDYWGQGTLVTVSS
VL: QTVVTQEPSFSVSPGGTVTLTCGLSSGSVSTSYYPSWYQQTPGQAPRTLIYSTNTRSSGVPDRFSGSILGNKAALTITGAQADDESDYYCVLYMGSGISYVFGTGTKVTVL
notes: Tested as Fab; CH1 with His6/Flag tags (plasmid A) and lambda CL (plasmid E) come from the expression vectors
B15: Fab VH5-51_IGHD5-18*01>3_IGHJ4*01 G100K/G104T/G24A/S28R/G35V (KT ARV) & V3-4_IGLJ1*01 (Fab, V domains shown)
VH: EVQLVQSGAEVKKPGESLKISCKASGYRFTSYWIVWVRQMPGKGLEWMGIIYPGDSDTRYSPSFQGQVTISADKSISTAYLQWSSLKASDTAMYYCARRKYSYTYDYFDYWGQGTLVTVSS
VL: QTVVTQEPSFSVSPGGTVTLTCGLSSGSVSTSYYPSWYQQTPGQAPRTLIYSTNTRSSGVPDRFSGSILGNKAALTITGAQADDESDYYCVLYMGSGISYVFGTGTKVTVL
notes: as for B14

What was measured:
[1] = target: T1, Recombinant Human DLL4 (delta-like protein 4) (human, UniProt Q9NR61 27-524); assay: ECL (Meso Scale Discovery) binding assay on immobilised DLL4, Fab 10 nM
T1 construct: also called rHuman DLL4

[2] = target: T2, Recombinant Human DLL4 (human, UniProt Q9NR61 27-524); assay: ELISA, DLL4 coated on plate, Fab in solution, absorbance at 450 nm; signal minus noise
T2 construct: Bought recombinant human DLL4 (R&D Systems Cat#1506-D4/CF); That entry includes the signal peptide (amino acids 1-25), the transmembrane region and the cytoplasmic domain; also called delta-like protein 4; Delta-like ligand 4

[3] = target: T2, Recombinant Human DLL4; assay: ECL (MSD) multispot binding assay, DLL4 spotted on plate, purified Fab in solution; signal over blank
[4] = target: T3, Recombinant Human DLL4 (delta-like protein 4) (human, UniProt Q9NR61 27-524); assay: ELISA, Fab on plate-coated DLL4
T3 construct: also called rHuman DLL4; Delta-like 4

[5] = target: T3, Recombinant Human DLL4 (delta-like …); assay: ECL (MSD) binding assay, Fab on immobilized DLL4
[6] = target: T4, Recombinant Human DLL4 (R&D Systems Cat#1506-D4/CF) (human, UniProt Q9NR61 27-524); assay: ECL (MSD) binding assay, Fab on immobilized recombinant human DLL4
T4 construct: also called rHuman DLL4; delta-like protein 4

Binder | ELISA (Signal-Noise) [2] | ECL Signal/Blank [3] | ELISA (Signal-Noise) [4] | ECL signal [5] | other results
B1 | – | – | – | – | Signal [10 nM Fab] [1]: 13700
B2 | – | – | – | – | Signal [10 nM Fab] [1]: 14800
B3 | – | – | – | – | Signal [10 nM Fab] [1]: 15700
B4 | 0.02 | 67.9 | – | – | –
B5 | – | – | 0.07 | 14500 | –
B6 | – | – | 0.06 | 19700 | –
B7 | 0.01 | 112 | – | – | –
B8 | – | – | 0.09 | 21200 | –
B9 | 0 | 69.4 | – | – | –
B10 | – | – | 0.09 | 17300 | –
B11 | – | – | 0.29 | 51400 | –
B12 | 0.02 | 122 | – | – | –
B13 | 0.02 | 180 | – | – | –
B14 | – | – | – | – | ECL signal [6]: 15300
B15 | – | – | – | – | ECL signal [6]: 17400
